{"source": "patent US20120322122", "about": "“COMPOSITIONS AND METHODS FOR IMPROVED PLANT FEEDSTOCK” (published 2012)", "binders": {"B1": {"name": "AtGA20ox2 promoter AC-II (dsDNA)", "DNA 1": "CTTAACTCTTAACTGGTCGAACCAACCATGAATGATTTGGGCATAAT", "DNA 2": "ATTATGCCCAAATCATTCATGGTTGGTTCGACCAGTTAAGAGTTAAG"}, "B2": {"name": "AtGA20ox2 promoter AC-IV (dsDNA)", "DNA 1": "ATTATAAGAAAGATTAAAAAACCAAACAAATGTACACTAACATGACT", "DNA 2": "AGTCATGTTAGTGTACATTTGTTTGGTTTTTTAATCTTTCTTATAAT"}, "B3": {"name": "AC-I x3 EMSA probe (dsDNA)", "DNA 1": "CGGTACCAGTCCACCTACCGCCACCTACCGCCACCTACCGCTGTTCTCGA", "DNA 2": "TCGAGAACAGCGGTAGGTGGCGGTAGGTGGCGGTAGGTGGACTGGTACCG"}, "B4": {"name": "AC-II x3 EMSA probe (dsDNA)", "DNA 1": "B3 DNA 1 with T16A, T26A, T36A", "DNA 2": "B3 DNA 2 with A15T, A25T, A35T"}, "B5": {"name": "AC-III x3 EMSA probe (dsDNA)", "DNA 1": "CCAGTCCACCTAACTCTACCTAACTCTACCTAACGCTGTTC", "DNA 2": "GAACAGCGTTAGGTAGAGTTAGGTAGAGTTAGGTGGACTGG"}, "B6": {"name": "AC-IV x3 EMSA probe (dsDNA)", "DNA 1": "B5 DNA 1 with T11A, T21A, T31A", "DNA 2": "B5 DNA 2 with A11T, A21T, A31T"}}, "note": "Where a chain is given by its changes, count along the chain named.", "data": [{"target": "T1, PvMYB4a (Panicum virgatum)", "T1 chain": "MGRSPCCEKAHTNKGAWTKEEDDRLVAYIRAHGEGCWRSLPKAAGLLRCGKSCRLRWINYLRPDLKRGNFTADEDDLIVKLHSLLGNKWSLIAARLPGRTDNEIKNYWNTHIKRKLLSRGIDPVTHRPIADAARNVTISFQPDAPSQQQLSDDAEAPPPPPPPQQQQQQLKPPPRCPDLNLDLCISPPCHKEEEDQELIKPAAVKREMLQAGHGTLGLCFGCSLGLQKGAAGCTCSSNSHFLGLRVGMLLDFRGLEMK", "test": "EMSA; 5 mM MgCl2, 50 mM KCl, pH 7.5, 4 C", "settings": "tags: N-terminal His (pDEST17), E. coli BL21 DE3; label: biotin", "description": "The present and previous studies indicate that subfamily 4 MYB proteins directly bind the AC cis-elements in downstream monolignol biosynthesis gene promoters (Legay et al., 2007; Sonbol et al., 2009). […] Gel shift assays were performed to test for possible direct binding of PvMYB4 to different AtGA20-ox2 promoter regions in vitro. Analysis of the AtGA20-ox2 promoter 1500 bp upstream of the transcription start site identified an AC-II (−1200 bp) and an AC-IV (−150 bp) element. […] This is consistent with the direct binding of PvMYB4 to the synthetic AC-II elements (FIG. 4F). Binding of PvMYB4 to the AC elements in the GA20-ox promoter appears to inhibit expression of the gene.\nPvMYB4a was cloned into the pDEST17 expression vector by the Gateway cloning method (Invitrogen). After sequencing, the plasmid was transformed into BL21 DE3 E. coli competent cells. IPTG was added to induce expression of PvMYB4. The recombinant protein was purified with the MagneHis™ Protein Purification System (Promega Corporation, Madison, Wis.) then concentrated with an Amicon Ultra-15 Centrifugal Filter (Millipore Corporation, Billerica, Mass.). About 700-1000 ng of purified PvMYB4 protein was used for EMSA in each reaction. […] The DNA was transferred onto Nylon membranes and signal detected with a LightShift® Chemiluminescent EMSA Kit (Thermo Fisher Scientific Inc. Rockford, Ill.) using standard protocols.", "values": [{"binder": "B1", "binding result": "binds"}, {"binder": "B2", "binding result": "no binding"}]}, {"target": "T1, PvMYB4a", "test": "EMSA; 5 mM MgCl2, 50 mM KCl, pH 7.5, 4 C", "settings": "tags: N-terminal His (pDEST17), E. coli BL21 DE3; label: biotin", "remark": "another data set of the same source", "description": "PvMYB4a was cloned into the pDEST17 expression vector by the Gateway cloning method (Invitrogen). After sequencing, the plasmid was transformed into BL21 DE3 E. coli competent cells. IPTG was added to induce expression of PvMYB4. The recombinant protein was purified with the MagneHis™ Protein Purification System (Promega Corporation, Madison, Wis.) then concentrated with an Amicon Ultra-15 Centrifugal Filter (Millipore Corporation, Billerica, Mass.). About 700-1000 ng of purified PvMYB4 protein was used for EMSA in each reaction. The probes were labeled by annealing biotin-labeled olignucleotides or PCR products, then purified with a gel extraction kit (QIAGEN). Binding conditions were 12 mM Tris-HCl (pH 7.5), 20 mM NaCl, 50 mM KCl, 5 mM MgCl₂, 1 mM DTT, 0.2 mM EDTA, 2.5% glycerol, 1 mM β-ME, 0.05% NP-40 and 2 fmol biotin-labeled probes. The samples were loaded and run in a 6% DNA retardant gel (Invitrogen) in the cold room after the reactions had been incubated at 4° C. for 30 minutes. The DNA was transferred onto Nylon membranes and signal detected with a LightShift® Chemiluminescent EMSA Kit (Thermo Fisher Scientific Inc. Rockford, Ill.) using standard protocols.", "values": [{"binder": "B3", "binding result": "binds"}, {"binder": "B4", "binding result": "binds"}, {"binder": "B5", "binding result": "binds"}, {"binder": "B6", "binding result": "no binding"}]}]}
